Assay [1] deals with T1, human EMR2 (ADGRE2, CD312) on cells (human, UniProt Q9UHX3 24-823).
T1 construct: also called huEMR2 full length; Adhesion G protein-coupled receptor E2
T1 sequence: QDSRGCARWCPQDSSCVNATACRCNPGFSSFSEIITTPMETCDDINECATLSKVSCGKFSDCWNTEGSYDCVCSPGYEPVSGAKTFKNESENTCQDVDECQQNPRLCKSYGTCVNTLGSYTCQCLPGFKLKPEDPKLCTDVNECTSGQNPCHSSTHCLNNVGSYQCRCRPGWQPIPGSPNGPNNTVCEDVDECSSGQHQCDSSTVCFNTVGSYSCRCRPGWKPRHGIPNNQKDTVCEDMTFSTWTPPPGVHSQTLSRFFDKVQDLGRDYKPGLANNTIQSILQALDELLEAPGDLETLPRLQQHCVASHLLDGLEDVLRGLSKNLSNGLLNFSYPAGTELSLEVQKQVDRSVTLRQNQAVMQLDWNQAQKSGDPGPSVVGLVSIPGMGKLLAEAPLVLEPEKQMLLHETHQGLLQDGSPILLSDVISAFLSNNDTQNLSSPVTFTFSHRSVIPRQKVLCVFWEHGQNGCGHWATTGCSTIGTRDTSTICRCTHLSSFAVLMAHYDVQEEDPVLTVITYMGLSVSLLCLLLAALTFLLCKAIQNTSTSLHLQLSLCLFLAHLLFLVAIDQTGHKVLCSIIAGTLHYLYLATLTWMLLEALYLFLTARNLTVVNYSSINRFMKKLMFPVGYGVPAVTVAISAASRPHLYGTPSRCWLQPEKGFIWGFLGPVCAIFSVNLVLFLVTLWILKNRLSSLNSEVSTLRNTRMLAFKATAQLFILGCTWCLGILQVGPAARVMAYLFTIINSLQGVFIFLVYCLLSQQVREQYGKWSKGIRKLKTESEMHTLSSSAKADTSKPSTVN
Kind of assay: flow cytometry, median AF647 of live cells, MOLM 13 cells, 1 hour at 37 C. (Flow cytometry measures light scatter and fluorescence of single cells or particles in a stream.)

Assay [2] deals with T2, T-cell receptor with TRBV19 (Vβ17) beta chain on human T cells (human).
T2 construct: whole, on cells; also called Vb17; TRBV19+ T cells
T2 sequence (A0A075B6N1 22-114): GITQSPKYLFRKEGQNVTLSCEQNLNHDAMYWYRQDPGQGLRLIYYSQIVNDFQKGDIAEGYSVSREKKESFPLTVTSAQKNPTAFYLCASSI
In words: flow cytometry, % TRBV19+ T cells of live human pan-T cells, 1 hour at 37 C.

The target of assay [3] is T1, human EMR2 (ADGRE2, CD312) on cells. In words: flow cytometry, median AF647 of live cells, OCI-AML5 WT cells, 1 hour at 37 C.
Assay [4] has as its target T3, EMR2W4, huEMR2 GAIN domain + GPS, D261-T540, with C-terminal Avi/6x His tag (human).
T3 construct: also called Human EMR2 GAIN domain protein
T3 chain: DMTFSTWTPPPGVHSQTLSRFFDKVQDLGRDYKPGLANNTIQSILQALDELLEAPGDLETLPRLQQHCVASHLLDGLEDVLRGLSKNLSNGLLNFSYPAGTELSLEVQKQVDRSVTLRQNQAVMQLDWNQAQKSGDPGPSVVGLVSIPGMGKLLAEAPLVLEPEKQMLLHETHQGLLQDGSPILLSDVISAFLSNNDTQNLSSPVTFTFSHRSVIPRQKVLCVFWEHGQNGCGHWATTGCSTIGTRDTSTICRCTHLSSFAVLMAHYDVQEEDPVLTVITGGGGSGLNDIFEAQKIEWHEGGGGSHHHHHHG
In words: SPR, row 'SPR (KD) / EMR2' of the Forced Degradation table; stress condition of the KD and EMR2 construct not named on the sheet. In general terms: SPR reads the build-up and loss of mass on a sensor chip optically.

A word on the EC50: it is the concentration at which the effect is half-maximal. High values mean a need for much substance, low ones an effect from little substance. The term Kd denotes the equilibrium constant for the complex coming apart.

B1: EMVBB27 (bispecific antibody, human IgG1, kappa, L234A L235A)
heavy chain 1 (Vb17 arm, B17B21-LC-N33S Fab): QVQLQESGPGLVKPSETLSLTCTVSGYSITSGYFWNWIRQPPGKGLEWIGYISYDGSNNYNPSLKSRVTISRDTSKNQFSLKLSSVTAADTAVYYCASPSPGTGYAVDYWGQGTLVTVSSASTKGPSVFPLAPSSKSTSGGTAALGCLVKDYFPEPVTVSWNSGALTSGVHTFPAVLQSSGLYSLSSVVTVPSSSLGTQTYICNVNHKPSNTKVDKKVEPKSCDKTHTCPPCPAPEAAGGPSVFLFPPKPKDTLMISRTPEVTCVVVSVSHEDPEVKFNWYVDGVEVHNAKTKPREEQYNSTYRVVSVLTVLHQDWLNGKEYKCKVSNKALPAPIEKTISKAKGQPREPQVYTLPPSREEMTKNQVSLWCLVKGFYPSDIAVEWESNGQPENNYKTTPPVLDSDGSFFLYSKLTVDKSRWQQGNVFSCSVMHEALHNRFTQKSLSLSPGK
light chain 1 (Vb17 arm, B17B21-LC-N33S Fab): DIQMTQSPSSLSASVGDRVTITCRSSQSLVHSSGNTYLHWYQQKPGKAPKFLIYKVSNRFSGVPSRFSGSGSGTDFTLTISSLQPEDFATYYCSQSTHVPFTFGQGTKLEIKRTVAAPSVFIFPPSDEQLKSGTASVVCLLNNFYPREAKVQWKVDNALQSGNSQESVTEQDSKDSTYSLSSTLTLSKADYEKHKVYACEVTHQGLSSPVTKSFNRGEC
heavy chain 2 (EMR2 arm, EMR2B57-LH-spFv fused to Fc): QSALTQPASVSGSPGQSITISCTGTSSDVGGYNYVSWYQQHPGCAPKLMIYEVSYRPSGVSNRFSGSKSGNTASLTISGLQAEDEADYYCSSYTSSSTYVVFGGGTKLTVLGGGSGGSGGCPPCGGSGGEVQLVESGGGLVQPGGSLRLSCAASGFTFRSYWMHWVRQAPGKGLVWVSRISSGGSTTNYADSVKGRFTISRDNAKNTLYLQMNSLRAEDTAIYYCARGDNYYDSPYFDYWGCGTLVTVSSEPKSSDKTHTCPPCPAPEAAGGPSVFLFPPKPKDTLMISRTPEVTCVVVSVSHEDPEVKFNWYVDGVEVHNAKTKPREEQYNSTYRVVSVLTVLHQDWLNGKEYKCKVSNKALPAPIEKTISKAKGQPREPQVYTLPPSREEMTKNQVSLSCAVKGFYPSDIAVEWESNGQPENNYKTTPPVLDSDGSFFLVSKLTVDKSRWQQGNVFSCSVMHEALHNHYTQKSLSLSPGK
notes: also called EMVBB27.003; TPP000263194
Take B1: in assay [1], the midpoint of the response, the EC50, lay at 301 nM and the “Max (MFI)” value turned out to be 420000 MFI. Moreover, in assay [2], the midpoint of the response, the EC50, lay at 8.03 nM and the “Max % TRV19+” value came out at 6.62%. Also, in assay [3], the EC50 was determined as 296 nM and the “Max (MFI)” value turned out to be 250000 MFI.

B2: EMVBB6 (bispecific antibody, human IgG1, lambda, L234A L235A)
heavy chain 1 (Vb17 arm, B17B852-G34R-LH-spFv fused to Fc): DIQMTQSPSSLSASVGDRVTITCRSSQSLVHSNRNTYLHWYQQKPGCAPKLLIYKVSNRFSGVPSRFSGSGSGTDFTLTISSLQPEDFATYYCSQSTHVPFTFGQGTKLEIKGGGSGGSGGCPPCGGSGGQVQLQESGPGLVKPSETLSLTCTVSGYSITSGYFWNWIRQFPGKGLEWMGYISYDGSNNYNPSLKSRITISRDTSKNQFSLKLSSVTAADTAVYYCASPSPGTGYAVDYWGCGTTVTVSSEPKSSDKTHTCPPCPAPEAAGGPSVFLFPPKPKDTLMISRTPEVTCVVVSVSHEDPEVKFNWYVDGVEVHNAKTKPREEQYNSTYRVVSVLTVLHQDWLNGKEYKCKVSNKALPAPIEKTISKAKGQPREPQVYTLPPSREEMTKNQVSLWCLVKGFYPSDIAVEWESNGQPENNYKTTPPVLDSDGSFFLYSKLTVDKSRWQQGNVFSCSVMHEALHNHYTQKSLSLSPGK
heavy chain 2 (EMR2 arm, EMR2B361 Fab): EVQLVQSGGGLVKPGGSLRLSCVASGFIFRSYSMNWVRQAPGKGLEWVSSISSSSSYIYYADSVKGRFTISRDNAKNSLYLQMDSLRAEDTAVYYCARREYGGPFDYWGQGTLVTVSSASTKGPSVFPLAPSSKSTSGGTAALGCLVKDYFPEPVTVSWNSGALTSGVHTFPAVLQSSGLYSLSSVVTVPSSSLGTQTYICNVNHKPSNTKVDKKVEPKSCDKTHTCPPCPAPEAAGGPSVFLFPPKPKDTLMISRTPEVTCVVVSVSHEDPEVKFNWYVDGVEVHNAKTKPREEQYNSTYRVVSVLTVLHQDWLNGKEYKCKVSNKALPAPIEKTISKAKGQPREPQVYTLPPSREEMTKNQVSLSCAVKGFYPSDIAVEWESNGQPENNYKTTPPVLDSDGSFFLVSKLTVDKSRWQQGNVFSCSVMHEALHNRFTQKSLSLSPGK
light chain 2 (EMR2 arm, EMR2B361 Fab): QSVLTQPPSVFAAPGEKVTISCSGSSSNIGNDYVSWYQQLPGTAPKLLIYDNNKRPSGIPDRFSGSKSGTSATLGITGLQTGDEADYYCGTWDSSLSAGYVFGTGTKVTVLGQPKAAPSVTLFPPSSEELQANKATLVCLISDFYPGAVTVAWKADSSPVKAGVETTTPSKQSNNKYAASSYLSLTPEQWKSHRSYSCQVTHEGSTVEKTVAPTECS
notes: also called TPP000258023
As to B2, the EC50 came out at 12.6 nM in assay [1], 14.5 nM in assay [2] and 15.2 nM in assay [3]. In addition, the “Max (MFI)” value in assay [1] came out at 330000 MFI; in assay [3] it was 250000 MFI. In assay [2], the “Max % TRV19+” value amounted to 9.15%. Besides, the Kd in assay [4] amounted to 0.186 nM.

B3: EMVBB7 (bispecific antibody, human IgG1, lambda, L234A L235A)
heavy chain 1 (Vb17 arm, B17B852-G34R-LH-spFv fused to Fc): DIQMTQSPSSLSASVGDRVTITCRSSQSLVHSNRNTYLHWYQQKPGCAPKLLIYKVSNRFSGVPSRFSGSGSGTDFTLTISSLQPEDFATYYCSQSTHVPFTFGQGTKLEIKGGGSGGSGGCPPCGGSGGQVQLQESGPGLVKPSETLSLTCTVSGYSITSGYFWNWIRQFPGKGLEWMGYISYDGSNNYNPSLKSRITISRDTSKNQFSLKLSSVTAADTAVYYCASPSPGTGYAVDYWGCGTTVTVSSEPKSSDKTHTCPPCPAPEAAGGPSVFLFPPKPKDTLMISRTPEVTCVVVSVSHEDPEVKFNWYVDGVEVHNAKTKPREEQYNSTYRVVSVLTVLHQDWLNGKEYKCKVSNKALPAPIEKTISKAKGQPREPQVYTLPPSREEMTKNQVSLWCLVKGFYPSDIAVEWESNGQPENNYKTTPPVLDSDGSFFLYSKLTVDKSRWQQGNVFSCSVMHEALHNHYTQKSLSLSPGK
heavy chain 2 (EMR2 arm, EMR2B410 Fab): EVQLVESGGGLVQPGGSLRLSCAASGFTFSSYWMHWVRQVPGKGLVWVSRISSHGSSTSYADSVKGRFTISRDNAKNALYLQMNSLRAEDTAVYYCARGGNYYDSPYFDYWGQGTLVTVSSASTKGPSVFPLAPSSKSTSGGTAALGCLVKDYFPEPVTVSWNSGALTSGVHTFPAVLQSSGLYSLSSVVTVPSSSLGTQTYICNVNHKPSNTKVDKKVEPKSCDKTHTCPPCPAPEAAGGPSVFLFPPKPKDTLMISRTPEVTCVVVSVSHEDPEVKFNWYVDGVEVHNAKTKPREEQYNSTYRVVSVLTVLHQDWLNGKEYKCKVSNKALPAPIEKTISKAKGQPREPQVYTLPPSREEMTKNQVSLSCAVKGFYPSDIAVEWESNGQPENNYKTTPPVLDSDGSFFLVSKLTVDKSRWQQGNVFSCSVMHEALHNRFTQKSLSLSPGK
light chain 2 (EMR2 arm, EMR2B410 Fab): QSALTQPASVSGSPGQSITISCTGTSSDVGGYNYVSWYQQHPGKAPKLMIYEVSYRPSGISNRFSGSKSGDTASLTISGLQAEDEADYYCSSYTSSSTYVVFGGGTKVTVLGQPKAAPSVTLFPPSSEELQANKATLVCLISDFYPGAVTVAWKADSSPVKAGVETTTPSKQSNNKYAASSYLSLTPEQWKSHRSYSCQVTHEGSTVEKTVAPTECS
notes: also called TPP000258024
Regarding B3, the Kd in assay [4] was 1.47 nM.

These data come from patent US20250361317A1 (Janssen / Centocor, published 2025).
